Where two headings read alike, the source gives them in different places.
Assays:
[1] = Nitrocefin hydrolysis in soluble fraction of cell lysates with and without 5 mM maltose (screen and confirmation of positives); assay type: biochemical; conditions: 50 μM nitrocefin; 5 mM maltose; 100 mM sodium phosphate buffer, pH 7.0
Procedure: Next, 50 μl of PopCulture (Novagen) and 2.5 unit of benzonase nuclease was added to each well and incubated for 15 minutes at room temperature to lyse the cells. The cells debris and any unlysed cells were pelleted by centrifugation and supernatant was recovered. In 96-well format, 60 μl of lysate was assayed for hydrolysis of nitrocefin (50 μM) by monitoring the increase in absorbance at 490 nm in 100 mM sodium phosphate buffer, pH 7.0, both with and without 5 mM maltose. Any lysate in which there was a difference in rate of more than 2-fold (between with and without maltose) was selected for retesting and further investigation.
Library members identified as having more than 200% switching activity in the 96-well plate screen were grown 24-48 hours in 100 ml LB media in 500 ml shaker flasks at 22° C. without IPTG. The cells were pelleted and resuspended in 8 ml assay buffer (100 mM sodium phosphate buffer, pH 7.0) and lysed by French press. The soluble fraction of this lysate was assayed for hydrolysis of nitrocefin (50 μM) at 22° C. as previously described (Guntas and Ostermeier 2004) both with and without 5 mM maltose. Initial rates were determined from absorbance at 486 nm monitored as a function of time. The enzyme was incubated at the assay temperature in the absence or presence of 5 mM maltose for four minutes prior to performing the assay. All assays contained 100 mM sodium phosphate buffer, pH 7.0. Library members for which there was a difference in the initial rate of more than about 2-fold were sequenced (Table 4). Switches RG-5-169 and RG-200-13 were also assayed in the presence of 5 mM sucrose or 5 mM glucose.

[2] = Magnitude of switching in soluble fraction of cell lysates, Libraries 2-7 (FIG. 13); assay type: biochemical; conditions: room temperature, 50 μM nitrocefin
Procedure: Libraries were plated on LB plates containing […] at the indicated concentrations of ampicillin and incubated at 37° C. overnight. From these plates, colonies were picked to inoculate 1 ml LB media (supplemented with 50 μg/ml chloramphenicol and 1 mM IPTG) in 96-well format. Lysates from these cultures were assayed for nitrocefin hydrolysis activity in the presence and absence of maltose as described above.
Libraries 2-7 were plated on different levels of ampicillin in the presence of 50 mM maltose. Colonies that grew were used to inoculate 96-well plates. The resulting cultures were lysed and assayed at room temperature for nitrocefin hydrolysis in the presence and absence of maltose in 96-well format.
FIG. 13 is a schematic depiction of the library construction schemes for Libraries 2-7, and of particular switches identified from these libraries. The arrowheads indicate the sites of insertion. Multiple arrowheads on one gene indicate random insertion sites. Dashed arrows indicate a particular switch on which successive libraries were based. The magnitude of switching was determined on the soluble fraction of cell lysates at room temperature using 50 μM nitrocefin. For switches with a rate increase in the presence of maltose, the ratio is of “with maltose” to “without maltose” (indicated by no sign in front of the value). […]

[3] = Apparent dissociation constant for maltose from initial rate of nitrocefin hydrolysis; assay type: binding; conditions: 25° C.
Procedure: [formula] where ΔF is the change in fluorescence intensity, ΔFmax is the difference in fluorescence between no maltose and saturating amounts of maltose and [L] is the maltose concentration. The fluorescence quenching of RG13(1329W/A96W) upon addition of maltose was insufficient to accurately determine a Kd by this method. The dissociation constant for maltose and RG13(I329W) in the presence of saturating carbenicillin (2 mM) was determined by measuring the initial rate of carbenicillin hydrolysis as a function of maltose concentration. The apparent dissociation constant in the presence of subsaturating concentrations of nitrocefin (25 μM) for all three proteins was determined by measuring the initial rate of nitrocefin hydrolysis as a function of maltose concentration.

[4] = Steady state kinetics of nitrocefin hydrolysis, purified RG13 proteins, 25° C.; assay type: biochemical; conditions: for Km / kcat: nitrocefin
Procedure: All kinetic assays were performed at 25° C. in the presence of 100 mM sodium phosphate buffer, pH 7.0. Ten μl of enzyme stock was added to 1.59 ml buffer (containing the saccharide, if desired). After incubation for 30 seconds, 0.4 ml of 5× substrate was added and the absorbance at the appropriate wavelength was recorded using the Cary50 UV-VIS spectrophotometer. The wavelength monitored was 486 nm, 240 nm, and 232 nm for nitrocefin, carbenicillin, and ampicillin respectively. From the initial rate of reaction the kinetic constants were determined using Eadie-Hofstee plots. […] The rate data was consistent with a small hysteretic effect (Brennan et al. 1994) and not substrate inhibition as preincubation of the enzyme with the substrate for one minute prevented the lag from occurring upon addition of more substrate. Therefore, the steady state parameters for nitrocefin hydrolysis in the absence of maltose were determined by measuring the rate at 1-2 minutes (well after the lag) and correcting the substrate concentration by subtracting the amount of substrate hydrolyzed. In all cases the extent of reaction at the point the rate was measured was less than 25%. In the presence of maltose, no lag was observed.

[5] = test system: DH5α-E cells; assay: In vivo characterization: MIC of ampicillin for DH5α-E cells expressing the protein; assay type: cell-based, E. coli; conditions: LB plates, 37° C., 20 hours
Procedure: Overnight inoculums of DH5α-E cells expressing RG13, BLA or BLA(W208G) were diluted into LB media and plated on LB plates, either in the absence or presence of 50 μM maltose, in the presence of increasing amounts of ampicillin. Ampicillin was present in the plates at the following concentrations: 0, 2, 4, 8, 16, 32, 64, 128, 256, 512, and 2000 μg/ml. Cells were plated at approximately 1000 CFU (no antibiotic) per plate. The plates were incubated at 37° C. for 20 hours. The minimum inhibitory concentration (MIC) was defined as the lowest ampicillin concentration at which no colonies were present, or that at which the number of colonies present was <1% of the number of colonies at the next lowest level of ampicillin.

[6] = cited from earlier work
[7] = effector maltose 5 mM (saturating)
[8] = effector maltose 5 mM (saturating), 25° C.

## IFD-5-7: MBP[1-165]-BLA[110-286]-DKS-BLA[24-107]-MBP[164-370]; SEQ ID NO: 67
[1]
  Switching effect: percent change in velocity of nitrocefin hydrolysis in the presence of 5 mM maltose: +96%

## IFD-5-15: MBP[1-165]-BLA[168-286]-DKS-BLA[24-170]-MBP[164-370]; SEQ ID NO: 71
[1]
  Switching effect: percent change in velocity of nitrocefin hydrolysis in the presence of 5 mM maltose: +97%

## IFG-5-277: MBP[1-165]-BLA[218-286]-GSGGG-BLA[24-215]-MBP[164-370]; maltose is a negative effector; SEQ ID NO: 69
[1]
  Switching effect: percent change in velocity of nitrocefin hydrolysis in the presence of 5 mM maltose: −250%
[2]
  Effect of maltose on catalytic activity (magnitude of switching): negative effector

## RG13 I329W/A96W: RG13 with MBP hinge mutations I329W and A96W; SEQ ID NO: 65
[3]
  Kd: 0.17 ± 0.02 µM
[4]; effector maltose 5 mM
  Km Ratio (with effector)/(without effector): 0.23 ± 0.04
[4]; [7]
  kcat Ratio (with effector)/(without effector): 1.5 ± 0.2
  kcat/Km Ratio (with effector)/(without effector): 6.4 ± 1.3
[4]; [8]
  Km: 60 ± 4 µM
  kcat: 530 ± 20 s⁻¹
[4]; no effector, pH 7.0, 25° C.
  Km: 260 ± 40 µM
  kcat: 360 ± 40 s⁻¹

B1: BLA: penicillin-hydrolyzing enzyme TEM1 β-lactamase, parent enzyme of the switches (protein, UniProt P62593 24-286, looked up)
Beta-lactamase TEM: HPETLVKVKDAEDQLGARVGYIELDLNSGKILESFRPEERFPMMSTFKVLLCGAVLSRVDAGQEQLGRRIHYSQNDLVEYSPVTEKHLTDGMTVRELCSAAITMSDNTAANLLLTTIGGPKELTAFLHNMGDHVTRLDRWEPELNEAIPNDERDTTMPAAMATTLRKLLTGELLTLASRQQLIDWMEADKVAGPLLRSALPAGWFIADKSGAGERGSRGIIAALGPDGKPSRIVVIYTTGSQATMDERNRQIAEIGASLIKHW
[5]; 50 μM maltose
  Minimum Inhibitory Concentration of Ampicillin: ≧2000 μg/ml
[5]; No maltose
  Minimum Inhibitory Concentration of Ampicillin: ≧2000 μg/ml
[6]; previously reported for BLA at 24° C. (Sigal et al. 1984)
  kcat: 900 s⁻¹
[6]; previously reported for BLA at 24° C. (Sigal et al. 1984), read-out: Km
  Km: 110 µM
[6]; previously reported, 30° C. (Raquet et al. 1994)
  kcat: 930 s⁻¹
[6]; previously reported, 30° C. (Raquet et al. 1994), read-out: Km
  Km: 52 µM
[6]; substrate ampicillin (Raquet et al. 1994), read-out: Km for TEM-1 β-lactamase
  Km: 32 µM
[6]; substrate benzylpenicillin (Raquet et al. 1994), read-out: Km for TEM-1 β-lactamase
  Km: 19 µM
[6]; substrate cephalothin (Raquet et al. 1994), read-out: Km for TEM-1 β-lactamase
  Km: 246 µM
[6]; substrate oxacillin (Raquet et al. 1994), read-out: Km for TEM-1 β-lactamase
  Km: 3 µM
[6]; with or without an equimolar amount of MBP (Guntas et al. 2004)
  Effect of maltose on wild type BLA enzymatic activity: no effect

— patent US9290544B2, “Methods for making and using molecular switches involving circular permutation” (priority 2004, dated 2016)
